Results on five molecules are retold here after US5882851A, “Cytochrome P-450 monooxygenases” (Novartis Finance Corporation, priority 1993, dated 1999).

Series [1] concerns the target NADPH-cytochrome P-450 oxidoreductase, purified from Sorghum bicolor (Sorghum bicolor).
In a further series the test system is cytochrome P450. As to the kind of experiment: Photoreversible carbon monoxide inhibition of oxime production in tropaeolum microsomes. In kind it is biochemical, Tropaeolum majus. Particulars: 60 min. The protocol: The microsomal reaction mixture consists of 80 μl microsomes (10 mg protein per ml), 10 μl ^14 C-phenylalanine (0.5 μCi, 464 mCi/mmol, Amersham) or ^14 C-tyrosine (0.5 μCi, 450 mCi/mmol, Amersham) and 10 μl NADPH (75 mg/ml). The reaction mixtures are incubated for 1 hour at 37° C. At the end of the incubation period, the reaction mixtures are extracted with 1500 μl ethyl acetate. The ethyl acetate phase is evaporated to dryness, redissolved in a small volume and analyzed.
The microsomal reaction mixtures are incubated using different experimental conditions. The reaction mixtures are analyzed by HPLC.

For series [2], the system named is N[C@@H](Cc1ccc(O)cc1)C(=O)O. As to the kind of experiment: Reconstitution of cytochrome P-450TYR activity in DLPC micelles. In kind it is biochemical, Sorghum bicolor. As to conditions: pH 7.9, 30.0 °C. The source says:
Reconstitution of the enzyme activity of a microsomal P-450 enzyme is accomplished by insertion of the cytochrome P-450 enzyme and the corresponding NADPH-cytochrome P-450 oxidoreductase into appropriate lipid micelles made from different commercially available lipids. Isolation of NADPH-cytochrome P-450 oxidoreductase is done according to Halkier and Moller, Plant Physiol. 96:10-17, 1990. A mixture of lipids can be used but with cytochrome P-450TYR di-lauroyl-phosphatidyl choline (DLPC) provides the best enzymatic activity. One rate limiting factor of this rate limiting reaction is the number of correctly formed complexes of cytochrome P-450TYR and NADPH-cytochrome P-450 oxidoreductase. Excess amounts of the oxidoreductase and concentrated enzyme solutions ensure a sufficient number of active complexes.
A reconstituted enzyme is obtained using the following components:
Cytochrome P-450TYR : 100 μg/ml in 50 mM potassium phosphate buffer pH 7,9
Oxidoreductase, purified from Sorghum bicolor: 100 μg/ml in 50 mM potassium phosphate buffer pH 7,9
Lipid: 10 mg/ml di-lauroyl-phosphatidyl choline, sonicated in 50 mM potassium phosphate buffer pH 7,9
^14 C-tyrosine: commercially available from Amersham; [U-^14 C]-L-tyrosine 0.5 μCi
(§1) 10 μl of the lipid suspension is mixed in a glass vial with 50 μl of the cytochrome P-450TYR (0-1.5 pmol) solution. 50 μl of the oxidoreductase (0-0.15 U) solution is added and then 10 μl tyrosine solution and 10 μl NADPH solution are added and the mixture is sonicated in a Branson 5200 sonication bath for one minute. The reaction mixture is subsequently incubated for 1 hour at 30° C. At the end of the incubation period the reaction is stopped by transferring the glass vials onto ice. Radioactively labelled intermediates formed are extracted into 50 μl ehtyl acetate, applied to a silica coated TLC plate and developed using an ethyl acetate/toluene (1:5 v/v) mixture as mobile phase. The resultant product, p-hydroxyphenylacetaldehyde oxime is visualized by autoradiography of the TLC plate. Alternatively, the intermediates are analyzed by reverse-phase HPLC coupled to a Berthold radioactiviy monitor. The HPLC separation was carried out using a nucleosil 100-10C18 column isocratically eluted with 1,5% 2-propanol in 25 mM Hepes pH 7,9 (Halkier et al, J. Biol. Chem. 264:19487-19494, 1989). Control samples may be made by omitting either cytochrome P-450 oxidoreductase or NADPH.

Series [3] addresses T1, E. coli-expressed cytochrome P-450TYR (Sorghum bicolor, UniProt Q43135).
T1 construct: in which the 35 N-terminal amino acids are replaced by the nine N-terminal amino acids from bovine 17α hydroxylase; nine N-terminal amino acids from bovine 17alpha-hydroxylase (replace the 35 N-terminal residues) (N); made in house; host or cells: E. coli JM109, vector pSP19g10L
T1 sequence (Q43135 whole entry, looked up): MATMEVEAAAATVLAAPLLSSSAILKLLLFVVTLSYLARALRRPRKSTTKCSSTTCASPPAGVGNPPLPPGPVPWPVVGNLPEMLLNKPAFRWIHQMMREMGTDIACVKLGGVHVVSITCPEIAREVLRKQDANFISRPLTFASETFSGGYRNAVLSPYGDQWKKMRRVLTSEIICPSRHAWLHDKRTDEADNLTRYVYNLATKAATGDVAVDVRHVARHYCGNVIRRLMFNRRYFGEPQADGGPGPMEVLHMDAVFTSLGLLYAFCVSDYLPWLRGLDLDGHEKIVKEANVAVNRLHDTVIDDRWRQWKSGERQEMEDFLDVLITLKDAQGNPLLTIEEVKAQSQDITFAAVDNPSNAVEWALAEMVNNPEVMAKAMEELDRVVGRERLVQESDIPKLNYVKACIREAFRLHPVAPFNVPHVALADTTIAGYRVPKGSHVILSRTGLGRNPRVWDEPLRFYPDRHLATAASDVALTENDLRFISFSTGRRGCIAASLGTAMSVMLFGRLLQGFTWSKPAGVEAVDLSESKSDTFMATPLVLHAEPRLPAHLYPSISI
As to the kind of experiment: Reconstitution with E. coli-expressed cytochrome P-450TYR and sorghum NADPH cytochrome P450 reductase. The series is classed as biochemical. Particulars: dilaurylphosphatidylcholine micelles. As to the method:
as §1, with “50 μl of the oxidoreductase (0-0.15 U) solution is added and then 10 μl tyrosine solution and 10 μl NADPH solution are added and the mixture is sonicated in a Branson 5200 sonication bath for one minute.” left out, “The HPLC separation was carried out using a nucleosil 100-10C18 column isocratically eluted with 1,5% 2-propanol in 25 mM Hepes pH 7,9 (Halkier et al, J. Biol. Chem. 264:19487-19494, 1989).” left out
Reconstitution experiments with E. cole-expressed cytochrome P-450TYR and sorghum NADPH cytochorme P450 reductase in dilaurylpohsphatidylcholine micelles is performed as described in section 5.3. above.

Series [4] has as its target NADPH-cytochrome P-450 oxidoreductase, purified from Sorghum bicolor (Sorghum bicolor). This is another data set of the same source.

In turn, “modified cytochrome P-450TYR in which the 35 N-terminal amino acids are replaced by the nine N-terminal amino acids from bovine 17α hydroxylase, expressed in E. coli (from UniProt P05185) (enzyme)” showed an oxime production by the enzyme reconstituted in dilaurylphosphatidylcholine micelles (turnover rate) (nmol oxime per nmol P-450TYR per minute) in series [1] of 349. Consider `[C-]#[O+]` [CO/O2, carbon monoxide], for which the “% inhibition of oxime production” value was found to be 23% in the series with cytochrome P450 (with light (450 nm)) and 65% with cytochrome P450 (without light). Take cytochrome P-450TYR (Sorghum bicolor): the Km (usually the concentration of substrate that gives half-maximal velocity) was determined as 210 µM in series [2] (other: in the absence of added salt) and 140 µM in series [2] (other: in the presence of 15 mM NaCl).

B1: cytochrome P-450TYR: sorghum cytochrome P-450 monooxygenase converting tyrosine to p-hydroxyphenylacetaldehyde oxime, SEQ ID NO: 2 (protein)
chain: MATMEVEAAAATVLAAPLLSSSAILKLLLFVVTLSYLARALRRPRKSTTKCSSTTCASPPAGVGNPPLPPGPVPWPVVGNLPEMLLNKPAFRWIHQMMREMGTDIACVKLGGVHVVSITCPEIAREVLRKQDANFISRPLTFASETFSGGYRNAVLSPYGDQWKKMRRVLTSEIICPSRHAWLHDKRTDEADNLTRYVYNLATKAATGDVAVDVRHVARHYCGNVIRRLMFNRRYFGEPQADGGPGPMEVLHMDAVFTSLGLLYAFCVSDYLPWLRGLDLDGHEKIVKEANVAVNRLHDTVIDDRWRQWKSGERQEMEDFLDVLITLKDAQGNPLLTIEEVKAQSQDITFAAVDNPSNAVEWALAEMVNNPEVMAKAMEELDRVVGRERLVQESDIPKLNYVKACIREAFRLHPVAPFNVPHVALADTTIAGYRVPKGSHVILSRTGLGRNPRVWDEPLRFYPDRHLATAASDVALTENDLRFISFSTGRRGCIAASLGTAMSVMLFGRLLQGFTWSKPAGVEAVDLSESKSDTFMATPLVLHAEPRLPAHLYPSISI
Turning to B1, the Turnover rate in series [3] is listed as 349 nmol oxime per nmol P-450TYR per minute.

B2: cytochrome P-450TYR from Sorghum bicolor (L.) Moench (enzyme)
chain: ATMEVEAAAATVLAAPLLSSSAILKLLLFVVTLSYLARALRRPRKSTTKCSSTTCASPPAGVGNPPLPPGPVPWPVVGNLPEMLLNKPAFRWIHQMMREMGTDIACVKLGGVHVVSITCPEIAREVLRKQDANFISRPLTFASETFSGGYRNAVLSPYGDQWKKMRRVLTSEIICPSRHAWLHDKRTDEADNLTRYVYNLATKAATGDVAVDVRHVARHYCGNVIRRLMFNRRYFGEPQADGGPGPMEVLHMDAVFTSLGLLYAFCVSDYLPWLRGLDLDGHEKIVKEANVAVNRLHDTVIDDRWRQWKSGERQEMEDFLDVLITLKDAQGNPLLTIEEVKAQSQDITFAAVDNPSNAVEWALAEMVNNPEVMAKAMEELDRVVGRERLVQESDIPKLNYVKACIREAFRLHPVAPFNVPHVALADTTIAGYRVPKGSHVILSRTGLGRNPRVWDEPLRFYPDRHLATAASDVALTENDLRFISFSTGRRGCIAASLGTAMSVMLFGRLLQGFTWSKPAGVEAVDLSESKSDTFMATPLVLHAEPRLPAHLYPSISI
Take B2: in series [4], the conversion of L-tyrosine to p-hydroxyphenyl-acetaldehyde oxime by the enzyme reconstituted in lipid micelles (turn-over number) was found to be 198 min⁻¹.
